# According to US20160257711A1 (BOARD OF TRUSTEES OF THE UNIVERSITY OF ILLINOIS, published 2016):
# Molecular target: T1, integrin αIIbβ3 of human platelets (human, UniProt P08514 32-1039)
# T1 construct: whole, on cells; Endogenous receptor; also called integrin β3; glycoprotein IIb-IIIa
# Experiment: co-IP from platelet lysates and GST pull-downs
binder,measurement,value
"Gα13 (G protein α subunit), endogenous protein of human platelets (other, Endogenous Gα13 in detergent lysates of washed human platelets, precipitated or detected with anti-Gα13 antibody; also called G protein subunit Gα13) MADFLPSRSVLSVCFPGCLLTSGEAEQQRKSKEIDKCLSREKTYVKRLVKILLLGAGESGKSTFLKQMRIIHGQDFDQRAREEFRPTIYSNVIKGMRVLVDAREKLHIPWGDNSNQQHGDKMMSFDTRAPMAAQGMVETRVFLQYLPAIRALWADSGIQNAYDRRREFQLGESVKYFLDNLDKLGEPDYIPSQQDILLARRPTKGIHEYDFEIKNVPFKMVDVGGQRSERKRWFECFDSVTSILFLVSSSEFDQVLMEDRLTNRLTESLNIFETIVNNRVFSNVSIILFLNKTDLLEEKVQIVSIKDYFLEFEGDPHCLRDVQKFLVECFRNKRRDQQQKPLYHHFTTAINTENIRLVFRDVKDTILHDNLKQLMLQ",binding result,binds
